To fix the notation:
B1: 1E4 (antibody, V domains shown)
VH: EVQLQESGAELVRPGTSVKVSCKASGYAFTNYLIEWVKQRPGQGLEWIGVINPGSGGTNYNEKFKGKATLTADKSSSTAYMQLSSLTSDDSAVYFCASGNYDTYWGQGTLVTVSA
VL: DIVMTQSPLSLPVSLGDQASISCRSSQSLVHSNGNTYLHWYLQKPGQSPKLLIYKVSNRFSGVPDRFSGSGSGTDFTLKISRVEAEDLGVYFCSQSTHVPRTFGGGTKLEIK
notes: Antibody purified from a mouse hybridoma, raised against the full-length (140 residues) α-Syn aggregate; Only the variable domains are tied to the clone as tested; also called mouse monoclonal anti α-Syn antibody 1E4
B2: 9B11 (antibody, V domains shown)
VH: EVQLQESGGGLVQPKGSLKLSCAASGFTFNTYAMNWVRQAPGKGLEWVARIRSKSNNYATYYADSVKDRFTISRDDSQSMLYLQMNNLKTEDTAMYYCVRQDFDYWGQGTTLTVSS
VL: B1 VL with R101L, G105A, I111Q
notes: Antibody purified from a mouse hybridoma, raised against the full-length α-Syn aggregate; Only the variable domains are tied to the clone as tested; also called mouse monoclonal anti α-Syn antibody 9B11
B3: 10F10 (antibody, IgG2a, V domains shown)
VH: EVQLQESGPGLVKPSQSLSLTCSVTGYSITGGFYWNWIRQFPGNNLEWMGYINYDGSSDYSPSLKNRISITRDTSKNQFFLNLNSVTTEDTATYYCVRGDYDWGQGTTLTVSS
VL: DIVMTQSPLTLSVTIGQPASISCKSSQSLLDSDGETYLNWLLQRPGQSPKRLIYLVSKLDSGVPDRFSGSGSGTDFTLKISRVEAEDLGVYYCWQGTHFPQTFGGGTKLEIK
notes: Only the variable domains are tied to the clone as tested; also called mouse monoclonal anti α-Syn antibody 10F10
B4: 11F11 (antibody, IgG2b, V domains shown)
VH: EVQLQESGGGLVQPGGSLRLSCATSGFTFSDFYMEWVRQPPGKRLEWIAASRNKANDYTTEYSASVKGRFIVSRDTSQSILYLQMNALRAEDTAIYYCARDAHGKPFAYWGQGTLVTVSA
VL: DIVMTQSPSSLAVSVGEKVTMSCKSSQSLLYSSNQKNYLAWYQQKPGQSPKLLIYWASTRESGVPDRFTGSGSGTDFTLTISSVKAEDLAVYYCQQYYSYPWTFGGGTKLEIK
notes: Only the variable domains are tied to the clone as tested; also called mouse monoclonal anti α-Syn antibody 11F11
B5: 3A9 (antibody, V domains shown)
VH: EVQLQESGGGLVKPGGSLKLSCAASGFTFSSYAMSWVRQTPEKRLEWVATISNGGGYTYYPDSVKGRFTISRDNAKNTLYLQMSSLRSEDTAMYYCARHITTVRPTKYFDYWGQGTTLTVSS
VL: DIVMTQSPKFMSTSVGDRVSITCKASQNVGTTVAWYQQKPGQSPKLLIYSASNRYTGVPDRFTGSGSGTDFTLTISNMQSEDLADYFCQQYSNYPLTFGAGTKLELR
notes: Only the variable domains are tied to the clone as tested; also called mouse monoclonal anti α-Syn antibody 3A9
B6: AC8 (scFv, V domains shown)
VH: EVQLLESGGGLVQPGGSLRLSCAASGFTFSDYSMSWVRQAPGKGLEWVSGISSGGSSKYYADSVKGRFTISRDNSKNTLYLQMNSLRAEDTAVYYCAKIFHNFDYWGQGTLVTVSS
VL: QSVLTQPPSASGTPGQRVTISCSGSSSNIGSNNVYWYQQLPGTAPKLLIYYDSQRPSGVPDRFSGSKSGTSASLAISGLRSEDEADYYCASWDASLSAYVFGGGTKLTVLG
notes: Clone from a human scFv phage library; The screen used soluble HA-tagged scFv; The dot blot was detected with anti-human Fc-HRP, so an Fc-bearing format may have been used there; also called ScFV anti α-Syn antibody AC8
B7: DA9 (scFv, V domains shown)
VH: EVQLLESGGGLVQPGGSLRLSCAASGFTFSNYAMSWVRQAPGKGLEWVSVISPSDSNTYYADSVKGRFTISRDNSKNTLYLQMNSLRAEDTAVYYCARVTLSCRASRCSYSNGMDVWGQGTLVTVSS
VL: B6 VL with S26P, S31N, N33S, Y35S, Y51A, D52N, Q54H, A90G, S97N, A98G
notes: Clone from a human scFv phage library; also called ScFV anti α-Syn antibody DA9
B8: DG8 (scFv, V domains shown)
VH: EVQLLESGGGLVQPGGSLRLSCAASGFTFSDHAMSWVRQAPGKGLEWVSVISHGNGSKYYADSVKGRFTISRDNSKNTLYLQMNSLRAEDTAVYYCARVASRCRRGRCSYSDGMDVWGQGTLVTVSS
VL: B6 VL with N33S, Y35S, Y51A, D52N, S53N, Q54N, A90G, S91A, A94S
notes: Clone from a human scFv phage library; also called ScFV anti α-Syn antibody DG8
B9: AA9 (scFv, V domains shown)
VH: EVQLLESGGGLVQPGGSLRLSCAASGFTFSSYSMSWVRQAPGKGLEWVSAIYPGSSNKYYADSVKGRFTISRDNSKNTLYLQMNSLRAEDTAVYYCARHAATFDYWGQGTLVTVSS
VL: B6 VL with N33Y, Y35S, Y51G, S53N, Q54K, A90G, S91A, A94D, A98G
notes: Clone from a human scFv phage library; also called ScFV anti α-Syn antibody AA9
B10: DG11 (scFv, V domains shown)
VH: B8 VH with H32Y, H53P, N55S, R98K, A100T, S101I, R102S, R104A, G106M, S111A
VL: B6 VL with S23T, N33S, Y35S, Y51A, D52N, Q54N, S91A
notes: Clone from a human scFv phage library; also called ScFV anti α-Syn antibody DG11
B11: AE8 (scFv, V domains shown)
VH: EVQLLESGGGLVQPGGSLRLSCAASGFTFSNYAMSWVRQAPGKGLEWVSAISSGGGNIYYADSVKGRFTISRDNSKNTLYLQMNSLRAEDTAVYYCARRPLYFDYWGQGTLVTVSS
VL: B6 VL with S31N, N33S, Y35N, Y51A, D52N, S53N, Q54N, A90G, S97N, A98G
notes: Clone from a human scFv phage library; also called ScFV anti α-Syn antibody AE8
B12: AD2 (scFv, V domains shown)
VH: B6 VH with D31N, S33A, G50A, S53H, G54S, K98R, I99S, F100G, H101N
VL: B6 VL with S23T, S31N, N33S, Y35S, Y51S, S53N, Q54N, A90G, A98G
notes: Clone from a human scFv phage library; also called ScFV anti α-Syn antibody AD2
B13: AD7 (scFv, V domains shown)
VH: B11 VH with N31G, S53P, G54N, I58K, L101V
VL: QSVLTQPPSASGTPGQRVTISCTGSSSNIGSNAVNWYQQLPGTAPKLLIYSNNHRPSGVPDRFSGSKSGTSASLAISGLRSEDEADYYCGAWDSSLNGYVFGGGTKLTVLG
notes: Clone from a human scFv phage library; also called ScFV anti α-Syn antibody AD7
B14: DG5 (scFv, V domains shown)
VH: B7 VH with S54G, D55S, S56G, L101I, S102A, R104P, A105T, S106K
VL: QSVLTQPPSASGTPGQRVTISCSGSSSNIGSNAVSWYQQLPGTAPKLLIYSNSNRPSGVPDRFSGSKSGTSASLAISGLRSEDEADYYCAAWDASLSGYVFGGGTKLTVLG
notes: Clone from a human scFv phage library; also called ScFV anti α-Syn antibody DG5

Broadly, the EC50 is the midpoint of the concentration-response curve. By Kd is commonly meant the concentration at which binding is half-saturated.

Numbering of substitutions follows the chain as printed. Where “and” joins values, the source holds several entries; their conditions need not be identical. Identical values can stand only once.

The first test addresses T1, α-syn aggregate (human, UniProt P37840 1-140). Put plainly: ELISA (Example 2-2), column Fibrils. The protocol: ELISA analysis was performed to quantitatively analyze the binding affinity of the antibody of the present invention to the antigen. For this, alpha-synuclein antibody of the present invention was coated on a 96-well plate at a concentration of 1 mg/ml and treated with alpha, synuclein fibril aggregates at 10, 100, 1000 and 10,000 ng/ml. After washing with PBS, streptavidin conjugated with HRP and secondary antibody conjugate with biotin was treated and then reacted with TMB as a substrate. The absorbance was measured.
For B1, the EC50 was 0.0245 µg/mL and 0.163 nM.
As to B2, the EC50 is 0.185 µg/mL and 1.23 nM.
Consider B3, for which the EC50 is 0.087 nM and 0.0131 µg/mL.
Take B4: the EC50 is 0.327 µg/mL and 2.18 nM.
Still for that read-out and setting: the value for B5 was 0.319 µg/mL and 2.13 nM.

A further test concerns the target α-syn monomer (human, UniProt P37840 1-140). Put plainly: ELISA (Example 2-2), column Monomers.
For the molecule B3, the EC50 was 0.0233 µg/mL and 0.155 nM.

The target in the next test is T1, α-syn aggregate. Kind of test: Octet (BLI), α-syn aggregate (Example 2-6). The protocol:
Specifically, the running buffer was 1 x KB buffer (cat. 18-1092) or 1 x PBS buffer at 1000 rpm, and the immobilization buffer was sodium acetate, pH 5 (10 mM, Cat 18-1068. α-syn monomers was immobilized the α-syn antigen, and fibrils was immobilized the test antibody. The target concentrations were 20 µg/ml for the monomer and 0.4 µg/ml for the fibril. The kinetics concentration was diluted sequentially two times from 50 nM for monomers and from 100 nM for fibrils, to give 7 points in total, respectively. Association/dissociation time was 5 min / 20 min for monomer and 5 min / 25 min for fibril. Biosensor was ARG2 and fitting was performed using 1: 1 fitting model.
Octet analysis was performed as described in Examples 2-4 using the ScFV anti-Syn antibodies selected in Example 1-2.
For orientation: Biolayer interferometry detects binding as a change in optical thickness at a sensor tip.
Molecule B1 came in with a Kd of 0.18 nM.
In the case of B2, the Kd amounted to 0.018 nM.
The molecule B3 showed a Kd of 0.81 nM.
On the same count and under the same terms, with B6 the figure was 0.24 nM.
Regarding B7, the Kd was 4.31 nM.
In turn, B8 yielded a Kd of 3.8 nM.
The molecule B9 showed a Kd of 0.88 nM. This Kd lies about 4.3-fold lower than the previous one.
B10 gave a Kd of 2.66 nM. This Kd lies about 3-fold higher than the previous one.
On the same count and under the same terms, the value for B11 was 0.39 nM.
The molecule B12 had a Kd of 1.67 nM. This Kd is about 4.3-fold higher than that of the molecule before.
Turning to B13, binding was characterised by a dissociation constant (Kd) of 0.17 nM.
B4 returned a Kd of 0.16 nM.
Molecule B5 showed a Kd of 0.13 nM.
As to B14, binding was put at a Kd of 1.26 nM.

Another test addresses T1, α-syn aggregate. Put plainly: BIAcore (SPR), 1:1 binding model (Example 2-3), column Fibrils. The protocol:
Quantitative analysis of the binding of alpha-synuclein antibody prepared in Example 1 to monomer and aggregate antigen was performed using BIAcore analysis.
The used instrument was T200 (GE Healthcare, S / N: 1565888). Protein A is used as a chip (GE Healthcare, Cat. 29-1275-56). 10 mM Glycine-HCl pH 1.5 (GE Healthcare, Cat. BR-1003-54) was regeneration buffer. The running buffer, analyte dilution, and the sample dilution buffer were HBS-EP. The α-syn antibodies (3A9, 9B11 and 11F11) prepared in Example 1 were diluted with 1 x HBS-EP (GE Healthcare, Cat. BR-1006-69), and alpha-synuclein monomer (1 mg/ml) and fibril protein (3 mg / ml) were serially diluted in duplicate and analyzed at 6 concentrations (0, 0.39, 1.56, 6.25, 25, 100 nM) including 0 nM in total. For the capture, the monomer was for RU of 800 (theoretical), and a fibril was for RU of 100 (theoretical). The capture phase was performed at contact time of 60 seconds, a flow rate of 30 µl / min, and a stabilization period of 180 seconds. The association phase was performed at the association time of 120 seconds and the flow rate was 30 µl/min. The dissociation phase was performed at the dissociation time of 360 seconds and the flow rate of 30 µl/min. The regeneration phase was performed twice time at the regeneration time of 240 seconds (primary) and 60 seconds (secondary) and a flow rate of 30 µl/min. The fitting was carried out suing 1: 1 binding model, and the evaluation software was BIACore T200 Evaluation software (GE healthcare).
A general note: In SPR one partner is held on a chip, and binding of the other changes the refractive index at the surface.
B2: the Kd was found to be 0.904 nM. In other words, the sub-nanomolar range.
In turn, B4 registered a Kd of 2.87 nM.
The same measure, in the same setting: with B5 the figure was 1.32 nM.

(Values after patent publication US20230227540A1 (ABL BIO, published 2023).)
